According to paper PMC6212441, “Direct visualization of DNA baton pass between replication factors bound to PCNA” (Scientific Reports, 2018):

Assays:
[1] = target: T1, P. furiosus proliferating cell nuclear antigen (PCNA) (Pyrococcus furiosus), O73947; assay: negative-stain electron microscopy, single particle analysis; FEN (D175A), PCNA and double flap DNA (Substrate-A) mixed in 50 mM Tris-HCl pH 8.0, 50 mM NaCl, 37 °C 10 min; complex isolated on Superdex 200 without crosslinking; 2% uranyl acetate stain; map at 19 Å with crystal structures fitted; conditions: remark: other sources report otherwise
T1 chain: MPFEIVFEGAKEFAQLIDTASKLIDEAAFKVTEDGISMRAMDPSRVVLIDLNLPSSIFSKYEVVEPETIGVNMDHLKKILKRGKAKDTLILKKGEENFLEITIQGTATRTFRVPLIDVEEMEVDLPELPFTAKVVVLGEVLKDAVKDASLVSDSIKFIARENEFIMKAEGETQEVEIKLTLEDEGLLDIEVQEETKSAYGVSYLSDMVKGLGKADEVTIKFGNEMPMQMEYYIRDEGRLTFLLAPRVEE

[2] = target: T2, P. furiosus DNA ligase (Lig) (Pyrococcus furiosus, UniProt P56709 1-561); assay: negative-stain electron microscopy, single particle analysis; wild type FEN, Lig, PCNA and nonligatable nicked DNA (Substrate-B) mixed in 20 mM MES pH 6.5, 50 mM NaCl, 0.1 mM ATP, 5 mM MgCl2, 50 °C 10 min; complex isolated on Superdex 200 without crosslinking; 2% uranyl acetate stain; two classes, maps at 16 Å and 20 Å with crystal structures fitted; conditions: both partners purified
T2 construct: DNA ligase (Lig) of Pyrococcus furiosus, with DBD, AdD and OBD domains and the PIP-box motif 103-QKSFF-107
T2 sequence: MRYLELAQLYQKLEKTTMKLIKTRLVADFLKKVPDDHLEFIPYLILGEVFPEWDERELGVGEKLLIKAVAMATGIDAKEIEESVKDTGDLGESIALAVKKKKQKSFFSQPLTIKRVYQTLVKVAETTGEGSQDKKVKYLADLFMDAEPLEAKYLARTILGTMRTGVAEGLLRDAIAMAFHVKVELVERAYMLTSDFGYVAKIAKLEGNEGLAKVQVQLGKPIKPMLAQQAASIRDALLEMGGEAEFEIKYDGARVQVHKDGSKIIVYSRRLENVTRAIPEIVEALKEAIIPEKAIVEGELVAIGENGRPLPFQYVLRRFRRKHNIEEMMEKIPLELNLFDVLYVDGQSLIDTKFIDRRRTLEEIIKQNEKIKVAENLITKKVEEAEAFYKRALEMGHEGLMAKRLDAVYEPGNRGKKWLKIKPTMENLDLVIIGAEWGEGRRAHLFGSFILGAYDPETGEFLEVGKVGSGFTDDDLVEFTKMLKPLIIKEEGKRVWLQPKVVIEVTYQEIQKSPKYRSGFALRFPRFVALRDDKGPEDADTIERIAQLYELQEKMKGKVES

stoichiometry N [1]: 3
binding result [2]: binds
B1: P. furiosus proliferating cell nuclear antigen (PCNA) (natural protein, Pyrococcus furiosus)
chain: MPFEIVFEGAKEFAQLIDTASKLIDEAAFKVTEDGISMRAMDPSRVVLIDLNLPSSIFSKYEVVEPETIGVNMDHLKKILKRGKAKDTLILKKGEENFLEITIQGTATRTFRVPLIDVEEMEVDLPELPFTAKVVVLGEVLKDAVKDASLVSDSIKFIARENEFIMKAEGETQEVEIKLTLEDEGLLDIEVQEETKSAYGVSYLSDMVKGLGKADEVTIKFGNEMPMQMEYYIRDEGRLTFLLAPRVEE
notes: proliferating cell nuclear antigen (PCNA) of Pyrococcus furiosus, forms a homotrimeric ring; also called PCNA clamp; PCNA ring
